In experiment [1] the target is T1, ID1 polypeptide with Strep-tag (Plasmodium falciparum).
T1 construct: Expressed in E. coli, predicted 17 kDa; also called ID1 antigen peptide
T1 chain: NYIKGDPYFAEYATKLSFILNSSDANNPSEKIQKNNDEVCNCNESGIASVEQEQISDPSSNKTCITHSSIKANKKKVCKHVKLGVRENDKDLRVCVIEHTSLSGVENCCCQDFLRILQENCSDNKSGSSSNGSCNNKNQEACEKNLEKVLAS
Put plainly: antigen-specific ELISA, OD450.

The target in experiment [2] is T2, DBL2X polypeptide with Strep-tag (Plasmodium falciparum).
T2 construct: Expressed in E. coli, predicted 40 kDa; also called DBL2X antigen peptide
T2 chain: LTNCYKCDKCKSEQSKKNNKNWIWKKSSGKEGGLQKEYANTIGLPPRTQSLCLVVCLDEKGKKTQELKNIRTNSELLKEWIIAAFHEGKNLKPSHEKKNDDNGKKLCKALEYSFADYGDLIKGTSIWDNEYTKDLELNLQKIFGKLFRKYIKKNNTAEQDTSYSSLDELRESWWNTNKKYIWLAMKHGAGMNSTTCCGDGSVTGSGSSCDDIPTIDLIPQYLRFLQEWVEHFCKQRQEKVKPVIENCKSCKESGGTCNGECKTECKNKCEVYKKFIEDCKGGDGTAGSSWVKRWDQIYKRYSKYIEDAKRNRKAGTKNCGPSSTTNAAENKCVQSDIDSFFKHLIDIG
The experiment in a line: antigen-specific ELISA, OD450.

For experiment [3], the target named is T3, rVAR2 recombinant protein with a Strep-tag (prokaryotically expressed and purified) (Plasmodium falciparum).
T3 construct: Expressed in E. coli, about 74 kDa; also called prokaryotically expressed and purified rVAR2 protein; strep-tagged rVAR2 recombinant protein
T3 chain: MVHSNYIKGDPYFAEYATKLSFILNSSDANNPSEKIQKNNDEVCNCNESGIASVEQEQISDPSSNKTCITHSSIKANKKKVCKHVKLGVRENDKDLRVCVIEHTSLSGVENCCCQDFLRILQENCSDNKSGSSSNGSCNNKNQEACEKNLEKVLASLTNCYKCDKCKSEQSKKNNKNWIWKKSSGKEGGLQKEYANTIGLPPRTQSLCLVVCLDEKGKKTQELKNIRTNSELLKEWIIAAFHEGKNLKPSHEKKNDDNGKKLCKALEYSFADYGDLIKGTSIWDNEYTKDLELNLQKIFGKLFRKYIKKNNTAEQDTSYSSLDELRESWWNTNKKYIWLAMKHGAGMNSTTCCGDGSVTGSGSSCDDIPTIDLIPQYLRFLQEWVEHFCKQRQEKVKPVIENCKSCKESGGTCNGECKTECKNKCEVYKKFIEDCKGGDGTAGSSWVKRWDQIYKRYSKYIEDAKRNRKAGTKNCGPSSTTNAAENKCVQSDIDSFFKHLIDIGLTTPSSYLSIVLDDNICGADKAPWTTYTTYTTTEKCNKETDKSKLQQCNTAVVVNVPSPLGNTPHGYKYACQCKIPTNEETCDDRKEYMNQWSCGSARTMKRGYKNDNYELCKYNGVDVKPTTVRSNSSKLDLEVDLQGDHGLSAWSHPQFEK
Put plainly: Western blot, 5H4 as primary antibody. (In western blotting, separated proteins are transferred to a membrane and probed.)

The target of experiment [4] is T4, rVAR2 recombinant protein with the 3xFLAG-tag (eukaryotically expressed and purified) (Plasmodium falciparum, Possible post-translational modification (runs at about 115 kDa against 76 kDa predicted); not carried by the letters.).
T4 construct: Expressed in HEK293 or HEK293T cells; Predicted about 76 kDa, runs at about 115 kDa (possible post-translational modification); also called eukaryotically expressed and purified rVAR2 protein
T4 chain: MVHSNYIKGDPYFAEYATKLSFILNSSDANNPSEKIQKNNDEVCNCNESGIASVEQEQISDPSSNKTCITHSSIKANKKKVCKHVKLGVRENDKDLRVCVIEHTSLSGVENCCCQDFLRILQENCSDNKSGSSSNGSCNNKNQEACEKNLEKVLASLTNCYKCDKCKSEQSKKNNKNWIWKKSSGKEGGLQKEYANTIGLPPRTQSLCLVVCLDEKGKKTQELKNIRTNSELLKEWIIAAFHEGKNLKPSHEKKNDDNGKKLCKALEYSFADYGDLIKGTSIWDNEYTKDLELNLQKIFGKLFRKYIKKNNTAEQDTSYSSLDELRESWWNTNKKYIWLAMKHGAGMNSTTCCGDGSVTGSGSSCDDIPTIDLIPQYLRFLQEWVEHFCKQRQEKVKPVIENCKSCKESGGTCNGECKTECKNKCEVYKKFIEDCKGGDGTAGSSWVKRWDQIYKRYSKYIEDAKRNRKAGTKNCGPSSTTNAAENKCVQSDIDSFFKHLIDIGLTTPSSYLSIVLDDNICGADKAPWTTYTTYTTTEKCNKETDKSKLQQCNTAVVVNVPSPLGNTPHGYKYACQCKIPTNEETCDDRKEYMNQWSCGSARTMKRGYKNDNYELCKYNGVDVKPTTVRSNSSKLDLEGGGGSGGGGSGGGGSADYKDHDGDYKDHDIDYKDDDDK
Put plainly: Western blot, 5H4 as primary antibody.

Experiment [5] has as its target T5, ID2a polypeptide with Strep-tag (Plasmodium falciparum).
T5 construct: Expressed in E. coli, predicted about 15 kDa; also called ID2a antigen peptide
T5 chain: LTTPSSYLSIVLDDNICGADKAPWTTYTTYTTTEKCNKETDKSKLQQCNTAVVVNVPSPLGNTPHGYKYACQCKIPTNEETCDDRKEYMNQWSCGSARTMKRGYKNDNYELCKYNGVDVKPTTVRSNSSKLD
The experiment in a line: antigen-specific ELISA, antigen coated at 1 µg/ml.

B1: anti-rVAR2 monoclonal antibody 5H4 (antibody, V domains shown)
VH: EVKLVESGGGLVKPGGSLKLSCAASGFTFSNYAMSWVRQSPERRLEWVAEISITGRYTYYPDTVTGRFTISRDNAKNTLYLEMSSLRSEDTAMYYCTREGYDYAPSWFAYWGQGTLVTVSA
VL: DVVMTQTPLSLPVSLGDQASISCRSGQTLVHRNGITYLEWYLQKPGQSPKLLIYKVSNRFSGVPDRFSGSGSGTDFTLKISRVEAEDLGIYYCFQGSHVPRTFGGGTKLEIK
notes: Murine IgG from a mouse B cell hybridoma, purified from hybridoma supernatant; isotype and constant regions are not; also called murine monoclonal antibody 5H4
As for B1, the binding result is “no binding (tested: antigen coated at 1 µg/ml)” in experiment [1]; “no binding (tested: antigen coated at 1 µg/ml)” in experiment [2]; “binds” in experiment [3]; “binds” in experiment [4]; “binds” in experiment [5].

The record behind these values is US20210221880A1 (CAS LAMVAC GUANGZHOU BIOMEDICAL TECHNOLOGY, published 2021).
